Target: His-importin α (human, UniProt P52292 1-529)
Assay: ELISA; solid phase binding assay: Maxisorp microtiter plates coated with 25 ng of Tpr or C-Tpr; increasing concentrations of the soluble protein; bound protein detected with primary antibodies and horseradish peroxidase-conjugated secondary antibodies (TMB); apparent Kd from B = Bmax x Y/(Kd + Y); CRM1, NES and RanGTP at equimolar concentrations
Settings: both partners purified

B1: C-terminal domain of Tpr (C-Tpr, residues 1626-2348) (domain or fragment)
chain: EQRDEPQEPSNKVPEQQRQITLKTTPASGERGIASTSDPPTANIKPTPVVSTPSKVTAAAMAGNKSTPRASIRPMVTPATVTNPTTTPTATVMPTTQVESQEAMQSEGPVEHVPVFGSTSGSVRSTSPNVQPSISQPILTVQQQTQATAFVQPTQQSHPQIEPANQELSSNIVEVVQSSPVERPSTSTAVFGTVSATPSSSLPKRTREEEEDSTIEASDQVSDDTVEMPLPKKLKSVTPVGTEEEVMAEESTDGEVETQVYNQDSQDSIGEGVTQGDYTPMEDSEETSQSLQIDLGPLQSDQQTTTSSQDGQGKGDDVIVIDSDDEEEDDDENDGEHEDYEEDEEDDDDDEDDTGMGDEGEDSNEGTGSADGNDGYEADDAEGGDGTDPGTETEESMGGGEGNHRAADSQNSGEGNTGAAESSFSQEVSREQQPSSASERQAPRAPQSPRRPPHPLPPRLTIHAPPQELGPPVQRIQMTRRQSVGRGLQLTPGIGGMQQHFFDDEDRTVPSTPTLVVPHRTDGFAEAIHSPQVAGVPRFRFGPPEDMPQTSSSHSDLGQLASQGGLGMYETPLFLAHEEESGGRSVPTTPLQVAAPVTVFTESTTSDASEHASQSVPMVTTSTGTLSTTNETATGDDGDEVFVEAESEGISSEAGLEIDSQQEEEPVQASDESDLPSTSQDPPSSSSVDTSSSQPKPFRRVRLQTTLRQGVRGRQFNRQRGVS
In the case of B1, the Kd is reported as 21.5 nM.
